The values that follow are results of earlier work, collected in patent US5780279A, “Method of selection of proteolytic cleavage sites by directed evolution and phagemid display” (Genentech, Inc., priority 1995, dated 1998).

Where no end group is shown, it is not given here.

The target of the series is A64SAL subtilisin (Bacillus amyloliquefaciens, UniProt P00782, E263S/G276A/H171A/S131C/Y324L). To be noted: Carter et al (1989).
Chain of A64SAL subtilisin (P00782 108-382 S131C/H171A/E263S/G276A/Y324L): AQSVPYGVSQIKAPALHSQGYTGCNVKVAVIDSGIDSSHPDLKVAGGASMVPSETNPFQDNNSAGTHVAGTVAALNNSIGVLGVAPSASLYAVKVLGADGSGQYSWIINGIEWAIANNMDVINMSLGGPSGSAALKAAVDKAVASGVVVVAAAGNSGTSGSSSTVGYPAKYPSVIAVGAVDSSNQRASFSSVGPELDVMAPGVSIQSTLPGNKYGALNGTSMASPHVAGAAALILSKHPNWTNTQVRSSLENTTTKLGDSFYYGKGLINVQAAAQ

Turning to AAHYTRQ, the “substrate quality for A64SAL subtilisin” value is given as “good substrate”.
